We go through 18 molecules from US20140296146A1, “Thermostable Inhibitors of Activation of the Blood Clotting System Through Contact with Foreign Surfaces” (Synapse B.V., priority 2011, published 2014).

Assay [1] is described as follows: TICA1 Ala-scan with intact disulfides, activity vs TICA1. As to conditions: single amino acid substituted by alanine. From the text:
Every single amino acid was substituted by alanine except for cysteine. […] See also FIG. 6.

For assay [2], the target named is T1, h-FXIIa (human, UniProt P00748 20-615).
T1 construct: also called factor XIIa
T1 sequence (looked up): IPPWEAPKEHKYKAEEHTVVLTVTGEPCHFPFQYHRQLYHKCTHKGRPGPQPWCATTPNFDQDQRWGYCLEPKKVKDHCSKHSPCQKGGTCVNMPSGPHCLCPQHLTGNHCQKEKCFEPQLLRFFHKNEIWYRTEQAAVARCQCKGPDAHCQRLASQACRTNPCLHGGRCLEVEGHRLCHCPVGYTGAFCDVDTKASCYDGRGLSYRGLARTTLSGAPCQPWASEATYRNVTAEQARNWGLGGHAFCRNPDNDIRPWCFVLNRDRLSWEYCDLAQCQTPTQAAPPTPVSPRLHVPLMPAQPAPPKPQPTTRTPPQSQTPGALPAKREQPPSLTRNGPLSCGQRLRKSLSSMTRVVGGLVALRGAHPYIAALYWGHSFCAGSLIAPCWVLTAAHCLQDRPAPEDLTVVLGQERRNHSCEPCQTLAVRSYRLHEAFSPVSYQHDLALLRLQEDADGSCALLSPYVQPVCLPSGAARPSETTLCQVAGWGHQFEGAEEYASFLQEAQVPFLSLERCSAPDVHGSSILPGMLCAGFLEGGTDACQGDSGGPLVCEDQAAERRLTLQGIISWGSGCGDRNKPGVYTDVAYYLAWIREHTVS
Description: S2302 hydrolysis by h-FXIIa (5.01 nM); inhibitor at RT during 72 hrs, against -80° C. The procedure:
(§1) Stock FXIIa was diluted 700× in BSA5. The inhibitor was diluted in BSA5 as indicated. Wells contained 70 μl diluted FXIIa (5 nM final), 70 μl inhibitor and 20 μl S2302 (475 or 462.5 μM final). The reaction was started after 5 min heating on the heating plate with S2302. Filters 405 nm and 490 nm reference. Found ΔmA/min was multiplied by 2.14 to get the figure for a 1 cm path.

Assay [3] deals with T1, h-FXIIa. Description: S2302 hydrolysis by h-FXIIa (5 nM), fit of residual activity; dissociation constant of the complex. The procedure: (§2) Stock FXIIa was diluted 700× in BSA5. The inhibitor was diluted in BSA5 as indicated. Wells contained 70 μl diluted FXIIa (5 nM final), 70 μl inhibitor and 20 μl S2302 (475 or 462.5 μM final). The reaction was started after 5 min heating on the heating plate with S2302. Filters 405 nm and 490 nm reference. Found mΔA/min was multiplied by 2.14 to get the figure for a 1 cm path.
(§3) in which E=[FXIIa], Ki is the dissociation constant, I=[Inhibitor], kcat and Km are Michaelis constants and S=[S2302].

Assay [4] concerns the target T1, h-FXIIa. Description: S2302 hydrolysis by h-FXIIa (5.01 nM); inhibitor 30 min 95° C. The method, then:
as §1

For assay [5], the target named is T1, h-FXIIa. As to the kind of experiment: S2302 hydrolysis by h-FXIIa (5.01 nM); inhibitor kept at -80° C. (reference). The procedure: as §1
The target of assay [6] is T1, h-FXIIa. As to the kind of experiment: S2302 hydrolysis by h-FXIIa (5.01 nM); inhibitor at RT during 72 hrs. The method, then: as §1
Assay [7] concerns the target T1, h-FXIIa. Description: S2302 hydrolysis by h-FXIIa, fit of residual activity. The method, then:
as §2, §3

Assay [8] addresses T1, h-FXIIa. As to the kind of experiment: S2302 hydrolysis by h-FXIIa (5.01 nM); inhibitor kept at -80° C. The method, then:
as §1

Assay [9] concerns the target T1, h-FXIIa. As to the kind of experiment: S2302 hydrolysis by h-FXIIa (5.01 nM); inhibitor 30 min 95° C., against -80° C. The procedure:
as §1

The target of assay [10] is T1, h-FXIIa. As to the kind of experiment: activity of TICA1 disulfide variants against TICA1 with 3 disulfides (FIG. 5); assay not named.
In assay [11] the target is T1, h-FXIIa. As to the kind of experiment: S2302 hydrolysis by F.XIIa; before heating.
A further assay addresses h-FXIIa (human) (UniProt P00748). Description: activity of TICA1 disulfide variants against TICA1 with 3 disulfides (FIG. 5); assay not named.
Assay [12] addresses T2, h-FXIIa (human), P00748.
T2 chain: T1 sequence (looked up)
Description: S2302 hydrolysis by h-FXIIa (5 nM), fit of residual activity; dissociation constant of the complex.

In assay [13] the target is T2, h-FXIIa (human), …. Description: S2302 hydrolysis by h-FXIIa (5.01 nM); inhibitor kept at -80° C. (reference).
Assay [14] concerns the target T2, h-FXIIa (human), …. As to the kind of experiment: S2302 hydrolysis by h-FXIIa (5.01 nM); inhibitor 30 min 95° C.
Assay [15] has as its target T2, h-FXIIa (human), …. As to the kind of experiment: FXIIa activity, total FXIIa 9.33 nM, 306 nM TICA1 added after 60 minutes at 95° C.
The target in assay [16] is T2, h-FXIIa (human), …. Description: S2302 hydrolysis by h-FXIIa (5.01 nM); inhibitor 30 min 95° C., against -80° C.
Assay [17] concerns the target T2, h-FXIIa (human), …. As to the kind of experiment: S2302 hydrolysis by h-FXIIa (5.01 nM); inhibitor at RT during 72 hrs, against -80° C.
Assay [18] addresses T2, h-FXIIa (human), …. Description: S2302 hydrolysis by h-FXIIa, fit of residual activity.
For assay [19], the target named is T2, h-FXIIa (human), …. Description: S2302 hydrolysis by h-FXIIa (5.01 nM); inhibitor at RT during 72 hrs.
Assay [20] concerns the target T2, h-FXIIa (human), …. As to the kind of experiment: activity of TICA1 disulfide variants (FIG. 5), reference; assay not named.
For assay [21], the target named is T2, h-FXIIa (human), …. As to the kind of experiment: cell-based or functional assay.
Assay [22] deals with T2, h-FXIIa (human), …. As to the kind of experiment: residual inhibitor activity after 60 minutes at 95° C., calculated from free FXIIa (total 9.33 nM).
In assay [23] the target is T2, h-FXIIa (human), …. As to the kind of experiment: S2302 hydrolysis by h-FXIIa (5.01 nM); inhibitor kept at -80° C.

Changes are numbered by the printed parent chain. Where “and” joins values, the source holds several entries; their conditions need not be identical. Identical values can stand only once. Bridges are numbered along the chain shown (N, C = ends). Where no end group is shown, it is not given here.

In the case of “RVCPAILMKCKKDSDCLAECVCLEHGYCG [TICA1 Ala-scan analogue]”, the “Activity vs TICA1” value in assay [1] came out at 0.009%.
Regarding “RVCARILMKCKKDSDCLAECVCLEHGYCG [TICA1 Ala-scan analogue]”, the “Activity vs TICA1” value in assay [1] was 9.0%.
On to “squash trypsin inhibitor (STI), the serpin from Cucurbita Maxima seeds”, for which the Res. Act. (%) came to 106% in the assay with h-FXIIa [2], 100% with h-FXIIa [5] and 105% with h-FXIIa [9]. In addition, the Ki in the assay with h-FXIIa [3] is 0.251 µM; with h-FXIIa [4] it was 0.264 µM; with h-FXIIa [6], 0.267 µM; with h-FXIIa [7], 0.251 µM; with h-FXIIa [8] it was 0.251 µM.
As to “AVCPRILMKCKKDSDCLAECVCLEHGYCG [TICA1 Ala-scan analogue]”, in assay [1], the “Activity vs TICA1” value is given as 7.5%.
For RVCPRILMKAKKDSDALAECVALEHGYAG (disulfide 3-20) [TICA1 with 1 disulfide bond (C3-C20)], the “activity (%)” value in the assay with h-FXIIa [10] was found to be 0.003%.
Still for that read-out and setting: then RVAPRILMKCKKDSDCLAEAVCLEHGYCG (disulfide 10-22, 16-28) [TICA1 with 2 disulfide bonds (C10-C22, C16-C28)], with 0.3%.
For the molecule RVCPKILMECKKDSDCLAECICLEHGYCG (disulfide (positions not given here), Synthetic congener) [TICA 4], the Ki with h-FXIIa [11] is 4.62 µg/mL and 1.42 µM; with h-FXIIa [3] it was 1.42 µM; in the assay with h-FXIIa [4], 1.34 µM; with h-FXIIa [6], 1.4 µM; in the assay with h-FXIIa [7], 1.42 µM; with h-FXIIa [8], 1.42 µM. Moreover, the “Res. Act. (%)” value came out at 98% with h-FXIIa [2], 100% with h-FXIIa [5] and 94% with h-FXIIa [9].
For the molecule RVAPRILMKCKKDSDALAEAVCLEHGYAG (disulfide 10-22) [TICA1 with 1 disulfide bond (C10-C22)], the “activity (%)” value in the assay with h-FXIIa [10] turned out to be 0.003%.
In the case of RVCPRILMKCKKDSDALAECVCLEHGYAG (disulfide 10-22, 3-20) [TICA1 with 2 disulfide bonds (C3-C20, C10-C22)], in the assay with h-FXIIa [10], the “activity (%)” value was determined as 0.2%.
On the same count and under the same terms, the value for RVAPRILMKAKKDSDCLAEAVALEHGYCG (disulfide 16-28) [TICA1 with 1 disulfide bond (C16-C28)] was 0.006%.
RVCPRILMECKKDSDCLAECVCLEHGYCG (disulfide (positions not given here), Synthetic, folded peptide) [TICA 2]: the Ki with h-FXIIa [11] is 0.355 µg/mL and 109 nM; with h-FXIIa [3], 0.109 µM; with h-FXIIa [4], 0.108 µM; in the assay with h-FXIIa [6] it was 0.114 µM; with h-FXIIa [7] it was 0.109 µM; with h-FXIIa [8], 0.109 µM. Besides, the “Res. Act. (%)” value with h-FXIIa [2] amounted to 105%; with h-FXIIa [5] it was 100%; in the assay with h-FXIIa [9], 99%.
Turning to RVCPRILMKAKKDSDCLAECVALEHGYCG (disulfide 16-28, 3-20) [TICA1 with 2 disulfide bonds (C3-C20, C16-C28)], the activity (%) with h-FXIIa (human) was 6.8%.
In assay [12], RVCPRILMKCKKDSDCLAECVCLEHGYCGAAA (modifications not checked) [TICA1-AAA] showed a Ki of 0.377 µM.
For the molecule RVCPRILMKCKKDSDCLAECVCLEHGYCG (modifications not checked) [TICA 1], the Res. Act. (%) in assay [13] was determined as 100%; in assay [16] it was 94%; in [17], 102%. In addition, the Ki in assay [14] is 0.024 µM; in assay [18], 0.0255 µM; in [12] it was 0.0255 µM; in assay [19], 0.026 µM; in assay [23], 0.026 µM. For the same molecule, the Free FXIIa in assay [15] is 3.93 nM. In addition, the activity (%) in [20] worked out at 100%. For the same molecule, the Activity of FXIIa (mA/min) in assay [21] turned out to be 33.5 mA/min. Further, in assay [22], the Residual activity (%) was 81.7%.
In [12], AAARVCPRILMKCKKDSDCLAECVCLEHGYCG (modifications not checked) [AAA-TICA1] registered an inhibition constant Ki of 0.104 µM.

B1: TICA 3 (peptide)
peptide: HEERVCPRILMKCKKDSDCLAECVCLEHGYCG
notes: Synthetic congener; also called HEE-TICA1
Turning to B1, the Ki is 10.1 µg/mL and 3.09 µM in the assay with h-FXIIa [11]; 3.09 µM with h-FXIIa [3]; 3.18 µM with h-FXIIa [4]; 3.13 µM with h-FXIIa [6]; 3.09 µM with h-FXIIa [7]; 3.09 µM in the assay with h-FXIIa [8]. For the same molecule, the “Res. Act. (%)” value in the assay with h-FXIIa [2] came out at 101%; with h-FXIIa [5], 100%; with h-FXIIa [9], 103%.

B2: TICA 5 (peptide)
peptide: B1 peptide with R8K, K12E, V24I
notes: Synthetic congener; also called HEE-TICA4
Regarding B2, the Ki was 556 µg/mL and 171 µM with h-FXIIa [11]; 171 µM with h-FXIIa [3]; 179 µM in the assay with h-FXIIa [4]; 165 µM with h-FXIIa [6]; 171 µM in the assay with h-FXIIa [7]; 171 µM with h-FXIIa [8]. In addition, the “Res. Act. (%)” value in the assay with h-FXIIa [2] was 96%; with h-FXIIa [5], 100%; in the assay with h-FXIIa [9] it was 105%.
Consider RVCGIGPRPRLPWPRILMKCKKDSDCLAECVCLEHGYCG (modifications not checked) [PCTI], for which, in [12], the Ki turned out to be 469 µM.
